From the nanobody polyreactivity screen of Harvey et al. (2022)

Experiment: yeast display, Sf9 membrane polyspecificity reagent, FACS + sequencing; frameworks hold sequencing errors
Outline: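 A nanobody's polyreactivity label depends on the gate it was sorted from. Yeast display cells were stained with 10% biotinylated, detergent-solubilized Sf9 membrane reagent for 1 hour at 4 °C, enriched on streptavidin microbeads and sorted by FACS. The low and high (top ~1%) gates were set on anti-HA fluorescence for expression and streptavidin fluorescence for reagent binding.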

Sequence	polyreactivity (PSR sort gate)
QVQLVESGGGLVQAGGSLRLSCAASGSIFSCYTMGWYRQAPGKERELVAASTTYADSVKGRFTISRDNAKNTVYLQMNSLKPEDTAVSYCATRHPARRDYWGQGTQVTVSS	low polyreactivity
QVQLVESGGGLVQAGGSLRLSCAASGSIFSENAMGWYRQAPGKERELVAAITGGASTNYADSVKGRFTISRDNAKNTVYLQMNSLKPEDNAVYYCNTGGPRGTTYDYWGQGTQVTVSS	low polyreactivity
QVQLVESGGGLVQAGGSLRLSCAASGSIFSEYAMGWYRQAPGKERELVAAISKSTGRTYYADSVKGRFTISRDNAKNTVYLQMNSLKPEDTAVYYCNAVRRAFIASYDYWGQGTQVTVSS	high polyreactivity
QVQLVESGGGLVQAGGSLRLSCAASGSIFSFYAMGWYRQAPGKEREFVAAITISDDSTYYADTVKGRFTISRDNAKNTVYLQMNSLNPEDTAVYYCNDRYLSWYFKYLYDYWGQGTQVTVSS	low polyreactivity
QVQLVESGGGLVQAGGSLRLSCAASGSIFSGNAMGWYRQAPGKERELVAAITSSGGSTYYADSVKGRFTISRDNAKNTVYLQMNSLKPEDTAVYYCAKDYYSKHFPIYDYWGQGTQVTVSS	low polyreactivity
QVQLVESGGGLVQAGGSLRLSCAASGSIFSGNAMGWYRQAPGKERELVADITFSGSSTYADSVKGRFTISRDNAKNTVYLQMNSLKPEDTAVYYCAKKRPGFLRYGSIGEFQYDYWGQGTQVTVSS	low polyreactivity
QVQLVESGGGLVQAGGSLRLSCAASGSIFSGNEMGWYRQAPGKDSELVATISWSGGSTNYADSVKGGFTISRDNAKNTVYLQMNSLKPEDTSVYYCAAVPGWVRQADGWVLSLLDYWGQGTQVTVSS	low polyreactivity
QVQLVESGGGLVQAGGSLRLSCAASGSIFSGNTMGCYRQAPGKERELVAAISGRGSNTYYADSVKGRFTISRDNAKNTVYLQMNSLKPEDTAVYYCAGPWVVRRTAYDYWGQGTQVTVSS	high polyreactivity
QVQLVESGGGLVQAGGSLRLSCAASGSIFSGYAMGWYRQAPGKERELVAAITWRAASTYYADSVKGRFTISRDNAKNTVYLQMNSLKPEDTAVYYCAKEGWPKPAFYYWGQGTQVTVSS	low polyreactivity
QVQLVESGGGLVQAGGSLRLSCAASGSIFSGYTMGWYRQAPGKERELVAAISSDGSTTYADSVKGRFTISRDNAKNTVYLQMNSLKPEDTAVYYCAAYPYWDGSYGGYDYWGQGTQVTVSS	low polyreactivity
QVQLVESGGGLVQAGGSLRLSCAASGSIFSGYVKGWYRQAPGKDMELVAAISGSGGSTYYADSVKGRFTISRDNAKNTVYFQMNSLKPEDTAVYYCNVDRSPTHIVGYGYWGQGTQVTVSS	low polyreactivity
QVQLVESGGGLVQAGGSLRLSCAASGSIFSGYVMGWYRQAPGKERELVAAISGSGGSTYYADSVKGRFTISRDNAKNTVYLQMNSLNPEDTAVYYCNKGLSRSYWWVDYWGQGTQVTVSS	low polyreactivity
QVQLVESGGGLVQAGGSLRLSCAASGSIFSGYVMGWYRQAPGKERELVAAISSGGSTYYADSVKGRFTISRDNAKNTVYLQMNSLKPEDTAVYYCAARSRKYGLLFYYWGQGTQVTVSS	high polyreactivity
QVQLVESGGGLVQAGGSLRLSCAASGSIFSHNAMGWYRQAPGKERELVASMTGSGGSTYYADSVKGRFTISRDNAKNTVYLHMNSLKPEDTAVYYCAADSYGRSETEDDYWGQGTQVTVSS	low polyreactivity
QVQLVESGGGLVQAGGSLRLSCAASGSIFSHYAMGWYRQAPGKERELVAAISRSGGSTYYADSVKGRFTISRDNAKNTVYLQMNSLKPEDTAVYYCAKEGDSGYWFDYWGQGTQVTVSS	low polyreactivity
QVQLVESGGGLVQAGGSLRLSCAASGSIFSINAMGWYRQAPGKERELVAVISWIGGNTYYADSVKGRFTISRDNAKNTVYLKMNSLKPEDTAVYYCAVATGPVSYRRYYCGQGTQVTVSS	high polyreactivity
QVQLVESGGGLVQAGGSLRLSCAASGSIFSKNAMGWYRQAAGKEWEWVAAISRSAGSTYYADSVKGRFTISRDNAKNTVYLQMNSLKPEDTAVYYCAAEGYRWVTAYYDYDEDYWGQGTQVTVSS	low polyreactivity
QVQLVESGGGLVQAGGSLRLSCAASGSIFSKYAMGWYRQAPGKERELVAAIDWSGGSTYYADSVKGRFTISRDNAKNTVYLQMNSLKPEDTAVYYCNAEYVVADYGYYTIEFDYWGQGTQVTVSS	low polyreactivity
QVQLVESGGGLVQAGGSLRLSCAASGSIFSKYTMGWYRQAPGKERELVAAIRGSGVRTYYADSVKGRFTISRDNAKNTVYLQMNSLKPEDTAVYYCAKVVYRGKVALWISSTAGSDYWGQGTQVTVSS	low polyreactivity
QVQLVESGGGLVQAGGSLRLSCAASGSIFSLYAMGWYRQAPGKERELVAAISRGGSTNYADSVKGRFTISRDNAKNTVYLQMNSLKPEDTAVYYCNAGFGVRRKHITFYTWYDYWGQGTQVTVSS	low polyreactivity
QVQLVESGGGLVQAGGSLRLSCAASGSIFSLYAMGWYRQAPGKERELVAAISSSGTSTYYADSVKGRFTISRDNAKNTVYLQMNSLKPEDTAVYYCNAYREFDWGQGTQVTVSS	high polyreactivity
QVQLVESGGGLVQAGGSLRLSCAASGSIFSLYAMGWYRQAPGKERELVTAITSGGRTKYADSVKGRFTISRDNAKNTVYLQMNSLKPEDTAVYYCAARDDSEKRYLTQYAYNYWGQGTQVTVSS	low polyreactivity

Sequence	polyreactivity (PSR sort gate)
QVQLVESGGGLVQAGGSLRLSCAASGSIFSPNAMGWYRQAPGKEMELVPRITSGGSTFYADSVKGRFTISRDYAKNTVYLQMYSLKPEDTAVSYCAAVQTRYTSVFSSTRYDYWGQGTQVTVSS	low polyreactivity
QVQLVESGGGLVQAGGSLRLSCAASGSIFSPNAMGWYRQAPGKERELVAAITDSGGSTYYADSVKGRFTISRDNAKNTVYLQMNSLKPEDTAVYYCAVATGLLYKSHGYWGQATQVTVSS	low polyreactivity
QVQLVESGGGLVQAGGSLRLSCAASGSIFSPNAMGWYRQAPGKERELVAAITRGGSTYYADSVKGRFTISRDNAKKTVYLQMNSLKPEDTAVYYCAKRSKQFSTQYLYGYWGQGTQVTVSS	low polyreactivity
QVQLVESGGGLVQAGGSLRLSCAASGSIFSPNDMGWYRQAPGKERELVAAITSAGSTYYADSVKGRFTISRDNAKNTVYLQMNSLKPEDTAVYYCSASYISVTDYAYFPLWYGYWGQGTQVTVSS	low polyreactivity
QVQLVESGGGLVQAGGSLRLSCAASGSIFSPNDMGWYRQAPGKERELVAAITTAGSTYYADSVKGRFTISRDTAKNTVYLQMNSLKPEDTAVYYCAATYISVTDYAYFPLWYGYWGEGTQVTVSS	low polyreactivity
QVQLVESGGGLVQAGGSLRLSCAASGSIFSPYAMGWYRQAPGKEREFVAAITWSDGGTYADSVKGRFTISRDNAKNTVYLQMNSRKPEDTAVYYCAAKLASYLVTGMDYWGQGTQVTVSS	low polyreactivity
QVQLVESGGGLVQAGGSLRLSCAASGSIFSPYAMGWYRQAPGKERELVAAISYGVGNTYYADSVKGRFTISRDNAKNTVYLQMNSLKPEDTAVYYCAAEEYDYVYPHYFTKGYYWGQGTQVTVSS	high polyreactivity
QVQLVESGGGLVQAGGSLRLSCAASGSIFSQKAMVWYRQAPGKERELVASISTGDSSTYADSVKGRFTISRDNAKNTVYLQMNSLKREDTAVYYCNAYRYNALPWRYVGYDYWGQGTQVTVSS	low polyreactivity
QVQLVESGGGLVQAGGSLRLSCAASGSIFSQNAIGWYRQAPGKEMELVAAISSSGTRTYYADSVKGRFTISRDHAKNTVYLQMNSLKPEDTAVYYCNKVLFRPRFFVRSDYWGQGTQVSVSS	high polyreactivity
QVQLVESGGGLVQAGGSLRLSCAASGSIFSQYAMGWYRQAPGKERELVAAISRSGGTTYYADSVKGRFTISRDNAKNTVYLQMNSLKPEDTAVYYCAADLKARRGSYDRFYYWGQGTQVTVSS	high polyreactivity
QVQLVESGGGLVQAGGSLRLSCAASGSIFSRNAKGWYRQAPGKERELVAAISRGANTYYADSVKGRLTISRDNAKNSVYLQMNSLKPEDTAVYYCAARIYKFPYTYDYWGQGTQVTVSS	high polyreactivity
QVQLVESGGGLVQAGGSLRLSCAASGSIFSRNAMGWSRPAPGKERELVAAISWSGGRKYYADSVKGRFTISRDNAKNTVYLQMNSLKPEDTAVYYCAAKVGYLAAYGRIRVYRYGYWGQGTQVTVSS	high polyreactivity
QVQLVESGGGLVQAGGSLRLSCAASGSIFSRYAMGWYRQAPGKESELVAASRWTDSSTYYADSVKGRFTISRDNAKNTVYLQMNSLKPEDTAVYYCAKVYERGSNKVDYWGQGTQVTVSS	low polyreactivity
QVQLVESGGGLVQAGGSLRLSCAASGSIFSRYAMGWYRQAPGTERELVAAITSSGTSTYYADSVKGRFTISRDNAKNTVYLQMNSLKPEDTAVYYCAAAFRQRTSRYDYWGQGTQVTVSS	high polyreactivity
QVQLVESGGGLVQAGGSLRLSCAASGSIFSRYTMAWYRQAPGKERELVARINSSGTSTYYADSVKGRFTISRDNAKNTVFLQMNSLKPEDTAVYYCARTSRHVRYDYWGQGTQVTVSS	low polyreactivity
QVQLVESGGGLVQAGGSLRLSCAASGSIFSRYTMGWYRQAPGKERELVARINSSGTSTYYADSVKGRFTISRDNAKITVYLQMNSLKPEDTAVYYCARTSRHVRYDYWGQGTQVTVSS	low polyreactivity
QVQLVESGGGLVQAGGSLRLSCAASGSIFSSNAMGWYRQAPGKDRELVASISWTGGNTYADSVKGRFTISRDNAKNTVYLQMNSLKPEDTAVYYCNAGRSWDYWYGYDYWGQGTQVTVSS	low polyreactivity
QVQLVESGGGLVQAGGSLRLSCAASGSIFSSNAMGWYRQAPGKERELVAAISSSGGSTYYADSVKGRFTISRDNAKNTVYLQKNSLKPEDTAVYYCATGKQVYGHYYWGQGTQVTVSS	low polyreactivity
QVQLVESGGGLVQAGGSLRLSCAASGSIFSSNAMGWYRQAPGKERELVAAITSSGTRTYYADSVKGRFTISRDNAKNTVYLQMNSLKPEDTAVYYCATRLRRSDHRYPYDYWGQGTQVTVSS	low polyreactivity
QVQLVESGGGLVQAGGSLRLSCAASGSIFSSYAMGWYRQAPGKERELVAAISQSGGDTYYADSVKGRFTISRDIAKNTVYLQMNSLKPEDTAVYYCAACVWYYPMDYWGQGTQGTVSS	low polyreactivity
QVQLVESGGGLVQAGGSLRLSCAASGSIFSSYAMGWYRQAPGKERELVAAISSGGGITYYADSVKGRFTISRDNAKNTVYLQMNSLKPEDTAVYYCNARVARSNNGWYYYWGQGTQVTVSS	high polyreactivity
